{"source": "the nanobody polyreactivity screen of Harvey et al. (2022)", "data": [{"assay": "yeast display, Sf9 membrane polyspecificity reagent, FACS + sequencing; frameworks hold sequencing errors", "procedure,_shortened": "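Nanobodies came from a synthetic yeast display library in Saccharomyces cerevisiae BJ5465, induced with galactose for 36–48 hours and stained for 1 hour at 4 °C with 10% biotinylated, detergent-solubilized Sf9 membrane reagent. Cells were enriched on streptavidin microbeads and then FACS-sorted, with low and high (top ~1%) gates set on anti-HA fluorescence for expression and streptavidin fluorescence for reagent binding. Each polyreactivity label reflects the gate a clone came from. Genes were amplified by colony PCR, sequenced by MiSeq 2 × 250 and filtered by CDR length.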", "values": [{"sequence": "QVQIVESGGGLVQAGGSLRLSCAASGSTFFRYAMGWYRQAPGKERELVAAISYSGDSTYYADSVKGRFTISRDNAKNTVYLQMNSLKPEDTAVFYCNAVYFRYRYNYWGQGTQVTVSS", "polyreactivity (PSR sort gate)": "high polyreactivity"}, {"sequence": "QVQLVESGGGLVQAGGSLRLSCAASGSTFRRYVMGWYRQAPGKERELVAAIRWNVGSTYYADSVKGRFTISRDNAKNTVYLQMNSLKPEDTAVYYCAAYEYVRGGYGYWGQGTQVTVSS", "polyreactivity (PSR sort gate)": "high polyreactivity"}, {"sequence": "QVQLVESGRGLVQAGCSLRLSCAASGRIFPWNAMGWYRQAPGKETEFVAAITSGGGTTYYADSVKGRFTISRDTAKITVYLQMNSLKQEDTAVYYCAAPVYTVRGWRGLYGYWGQGSQVTVSS", "polyreactivity (PSR sort gate)": "high polyreactivity"}, {"sequence": "QVQLVESGGGLVQAGGSLRLSCAASGSIFGNAMGWYRQAPGKEREFVAAISSSGSSTYYADSVKGRFTISRDNAKNTVYLQMNSLKPEDTAVYYCANRRRSAAPKYDYWGQGTQVTVSS", "polyreactivity (PSR sort gate)": "high polyreactivity"}, {"sequence": "QVQLVESCGGLVQAGGSLRLSCAASGSTFSSYAMGWYSQAPGKERELVAAISSSGGTSTYADSVKGPFTISRDNAKNTVYLQMNSLKPEDTAVYYCNTDRFRRLYDYWGQGTQVTVSS", "polyreactivity (PSR sort gate)": "high polyreactivity"}, {"sequence": "QVQLVESGGGLVQAGGSLRLSCAASGNIFYDYGMGWYRQAPGKERELVAGISSVDHTYYADSVKGRFTISRDNAKNTVYLQMNSLKPEDTAVYYCARDTELYVRWLDYWGQGTQVTVSS", "polyreactivity (PSR sort gate)": "low polyreactivity"}, {"sequence": "QVQLVESGGGLVQAGGSLRLSCAASGRTFVKNAMGWYRQAPGKERELVAAIDRGSRTNYADSVKGRFTISRDNAKNTVYLQMNSLKPEDTAVYYCATRYRVRDDQTGTWSIFGYWGQGTQVTVSS", "polyreactivity (PSR sort gate)": "high polyreactivity"}, {"sequence": "QVQLVESGGGLVQAGGSLRLSCAASGFNFRYYTMGWYRQAPGTERELVAVITSGGTTYYADSVKGRFTISRDNAKNTVYLQMNSLKPEDTAVYYCAADYRPRLYGVGVDYWGQGTQVTVSS", "polyreactivity (PSR sort gate)": "low polyreactivity"}, {"sequence": "QVQLVESGGGLVQAGGSLRLSCPASGRIFYYNAIGWYRQAPGKERELVATITRAGGTYYADSVKGRFTISRDNAKNTVYLQMNSLKPEDTAVYYCAKRHPIVDDYKGDYWGQGTQVTVSS", "polyreactivity (PSR sort gate)": "low polyreactivity"}, {"sequence": "QVQLVESGGGLVQAGGSLRLSCAASGSIFYFNAMGWYRQATGKERELVADISWSGGDSTYYADSVKGRFTISRDNAKNTVYLQMNSLKPEDTAVYYCAADLSYPDWSRYQWDMDYWGQGTQVTVSS", "polyreactivity (PSR sort gate)": "low polyreactivity"}, {"sequence": "QVQLVESGGGLVQAGGSLRLSCAASGIIFGLYTMGWYRQAPGKERELVAAISDSGGRTYYADSVKGRFTISRDNAKNTVYLQMNSLKPEDTAVYYCAAEFWYVLEYNYWGQGTQVTVSS", "polyreactivity (PSR sort gate)": "high polyreactivity"}, {"sequence": "QVQLVESGGGLVQAGGSLRLSCAASGRIFSRYAMGWYRQAPGKERELVAAISRAASTNYADSVKGRFTISRDNAKNTVYLQMNSLKPEDTAVYYCNKRLYGYYGRYDYWGQGTQVTVSS", "polyreactivity (PSR sort gate)": "low polyreactivity"}, {"sequence": "QVQLVESGGGLDQAGGSLRLSCAASGFIFITYEMGWYRQAPGKQMELVAVITSGGTTNYADSVKGRFTISRDNAKNTVYLQMNSLKPEDTAVYYCAAEDYVIGDSGYDYWGQGTQVTVSS", "polyreactivity (PSR sort gate)": "low polyreactivity"}, {"sequence": "QVQLVESGGGLVQAGGSLRLSCAASGFIFDAYAMGWYRQAPGKERELVAAIDSGGSTDYADSVKGRFTISRDNAKNTVYLQMNSLKPEDTAVYYCNAERAYLWWYNFDYWGQGTQVTVSS", "polyreactivity (PSR sort gate)": "low polyreactivity"}, {"sequence": "QVQLVESGGGLVQAGGSLRLSCAASGRTNKSNTLGWYRQEPGKQMELVAAISWRVGSTYYADSVKGRFTISRDNAKNTVYLQMNSLKPEDTAVYYCAARPWGYTVGSNYRYYLYGYWGLGTQVTVSS", "polyreactivity (PSR sort gate)": "high polyreactivity"}, {"sequence": "QVQLVESRGGLVQAGGSLRLSCAASGSTFFYNAMGWYRQAPGKEREFVAAITNGVITNYADSVKGRFTISRDNAKNTVYLQMNSLKPEDTAVYYCAALRWSPRSRYQYNYWGQGTQVTVSS", "polyreactivity (PSR sort gate)": "high polyreactivity"}, {"sequence": "QVQLVESGGGLVQAGGSLRLSCAASGGIFDFYAMGWYRQAPGKERELVAAIRYGGSSTYYADSVKGRFTISRDNAKNTVYLLLNSLKPEDTAVYYCAAEPFSWDTWVDYDYWGQGTQVTVSS", "polyreactivity (PSR sort gate)": "low polyreactivity"}, {"sequence": "QVHLVESGGGLVQAGGSLRLSCAASGFTFGPYAMGWYRQAPGKERELVAGITWSGASTYYADSVKGRFTISRDNAKNTVYLQMNSLKPEDTAVYYCARYYRLGSRYDYWGQGTQVTLSS", "polyreactivity (PSR sort gate)": "low polyreactivity"}, {"sequence": "QVQLVESGGGLVQAGGSLRLSCAASGNIFGAYAMGWYRQAPGKERELVARINSGAITNYADSVKGRFTISRDNAKNTVYLQMNSLKPEDTAVYYCNKDTYYAGSYLDYDYWGQGTQVTVSS", "polyreactivity (PSR sort gate)": "low polyreactivity"}, {"sequence": "QVQLVESGGGLVQAGGSLRLSCAASGRIFGYYAMGWYRQAPGKERELVAAISYTGGSTYYADSVKGRFTISRDNAKNTVYLQMNSLKPEDTAVYYCAAKHYKRLDYWGQGTQVTVSS", "polyreactivity (PSR sort gate)": "high polyreactivity"}, {"sequence": "QVQLVESGGGLVQAGGSLRLSCAASGFIFGKNALGWYRQAPGKERELVAVISWRGSSTYYADSVKGRFTISRDNAKNTVYLQMNSLKPEDTAVYYCAARYPARGTLYYWGQGTQVTVSS", "polyreactivity (PSR sort gate)": "low polyreactivity"}, {"sequence": "QVQLVESGGGLVQAGGSLRLSCAASGSILYVYAMGWYRPAPGKETELVAVITSGGSTNYADSVKGRFTISRDNAKNTVYLQMNSLKPEDTAVYYCAADPYSVYGGDYWGKGTQVTVSS", "polyreactivity (PSR sort gate)": "low polyreactivity"}, {"sequence": "QVQLVESGGGLVQAGGSLRLSCAASGITFAAYAMGWYRQAPGKERELVAAISTSGDSTYYADSVKGRFTISRDNAKNTVYLQMNSLKPEDTAVYYCAARAVRLSSSKVDYWGQGTQVTVSS", "polyreactivity (PSR sort gate)": "high polyreactivity"}, {"sequence": "QVQLVESGGGLVQAGGSLRLSCAASGSIFVNNAMGWYRQAPGKERELVAAISRSGTRTYYADSVKGRFTISRDNAKNTVYLQMNSLKPEDTAVYYCAVDYYYRMDYWGQGTQVTVSS", "polyreactivity (PSR sort gate)": "high polyreactivity"}, {"sequence": "QVQLVESGGGLVQAGGSLRLSCAASGGNFSPNAMGWYRQAPGKERELVAAISSNGGSTNYADSVKGRFTISRDNAKNTVYLKMNSLKPEDTAVYYCAGLQKRRSYWRPFYWGQGTQVTVSS", "polyreactivity (PSR sort gate)": "low polyreactivity"}, {"sequence": "QVHLVESGGGLVQAGGSLRLSCAASGRTFPGYAMGWYRQAPGKERELVATITFSDGSTYYADSVKGRFTISLDNAKNTVYLQMNSLKPEDTAVYYCNARRSYFLRYGVNYWGQGTQVTVSS", "polyreactivity (PSR sort gate)": "low polyreactivity"}, {"sequence": "QVQLVESGGGLVQAGGSLRLSCAASGSTFAVYAMGWYRQAPGKERELVAVISRGANTNYADSVKGRFTISRDNAKNTVYLQMNSLKPEDTAVYYCAAVDGYDSHDTGEYYYWGQGTQVSVSS", "polyreactivity (PSR sort gate)": "low polyreactivity"}, {"sequence": "QVKLEESGGGLVQAGGSLRLSCAASGSTFPGNAMGSYRQAPGKERELVAAINWSGDSTYYADSVKGRFTNSRDKPKNTVYLQMNSLTPEDTAVYYCAAYGDGYYYWGQGTQVTVSS", "polyreactivity (PSR sort gate)": "low polyreactivity"}, {"sequence": "QVQLVESGGGLVQAGGSLRLSCAASGFIFSRYAMGWYRQAPGKERELVAAIRFSGSITYYADSVKGRFTISRDNAKNTVYLQMNSLKPEDTAVYYCAAYRRYYGWYEYWGQGTQVTVSS", "polyreactivity (PSR sort gate)": "high polyreactivity"}, {"sequence": "QVQLQESGVGLVQASGSIFHEPNMGSYRQAPGKERELVAGISSGANTYYADSVKGRFTISRDNAKNTVYLQMNSLKPEDTAVYHCAVVVHLYTDLRYWGQDTQVTVSS", "polyreactivity (PSR sort gate)": "high polyreactivity"}, {"sequence": "QVQLVESGGGLVQAGGSLRLSCAASGRTFGYNAMGWYIQAPGKERELVAAINWSGASTYYADSVKGRFTISRDNAKNTVYLQMNSLKPEDTAVYYCAADYSYIYGFDYWGQGTQVTVSS", "polyreactivity (PSR sort gate)": "low polyreactivity"}, {"sequence": "QVQLVESVGGLVQAGGSLRLSCAASGFTFYKNAMGWYRQATGKERELVAPITKSGGRTYYADSVKGRFTISRDYAKNTVYLQMNCLKPEDNAVYYCAADISPFGRQPCVIRYSWGQGTQVTVSS", "polyreactivity (PSR sort gate)": "high polyreactivity"}, {"sequence": "QVQLVESGGGLVQAGGSLRLRCAASGSTFSRYAMGWYRQAAGKERELVAAISWSGGSTYYADSVKGRFTISRDNAKNTVYLQMNSLKPEYTAVYYCAAYTYSFRANHDFWGQGTQVTVSS", "polyreactivity (PSR sort gate)": "high polyreactivity"}, {"sequence": "QVQLVESGGGLVQAGGSLRLSCAASGSTFPYYAMGWYRQAPGKERELVAVITSSGSRTYYADSVKGRFTISRDNAKNTVYLQMNSLKPEDTAVYYCARDTRYYRPYRSQYDYWGQGTQVTVSS", "polyreactivity (PSR sort gate)": "high polyreactivity"}, {"sequence": "QVQLVESGGCLVQAGGSLRLSCAASGIIFQQYAMGWYRQAPGKARELVAAITYSGDGTYYADSVKGRFTISRDNAKNTVYLQMNSLKPEDTAVYDCAAYPRDPYKEYDYWGQGTQVTVSS", "polyreactivity (PSR sort gate)": "low polyreactivity"}, {"sequence": "QVQLVESGGGLVQAGGSLRLSCAASGYIFSGNAMGWYRQAPGKERELVAAITRSDVNTDYADSVKGRFTISRDNAKNTVYLQMNSLKPEDTAVYSCNTRVRASSVDYDEGDYWGQGTQVTVSS", "polyreactivity (PSR sort gate)": "low polyreactivity"}, {"sequence": "QVQLVESGGGLVQAGGSLRLSCAASGRIFLGYAKGWYRQAPGKERELVAAINRSGSSTYYADSVKGRFTISRDIAKNTVYLQMNSLKPEHSAVYYCNARSGNRYGPRYDYWVQGTQVTVSS", "polyreactivity (PSR sort gate)": "high polyreactivity"}, {"sequence": "QVQLVESGGGLVQAGGSLRLSCAASGSTFGSYAMGWYIQAPGKERELVAAISRAGSTYADSVKGRFTISRDNAKNTVYLQMNSLKPEDTAVYYCAKRDNALYYGYDYWGQGTQVTVSS", "polyreactivity (PSR sort gate)": "low polyreactivity"}, {"sequence": "QVQLVESGGGLVQAGGSLRLSCAASGRIFAVNAMGWYRQAPGKERELVAAISWSGGITRYADSVKGRFTISRDNAKNTVYLQMNSLKPEDTAVYYCNASQWPSRFDYWGQGTQVTVSS", "polyreactivity (PSR sort gate)": "low polyreactivity"}, {"sequence": "QVQLVESGGGLVQAGGSLRLSCAASGSTFRSYAMGWYRQAPGKEREFVAALSSSDDSSYYADSVKGRFTISRDNAKNTVYLQMNSLKPEDTAVYYCAARPWNDGYYVGRFHMDYWGQGTQVTVSS", "polyreactivity (PSR sort gate)": "low polyreactivity"}, {"sequence": "QVQLVESGGGLVQAGGRLRLSCAASGLTFPPNAMGWYRQAPGKERELVADSGGSTNYADSVKGRFTISRDNAKNTVYLQMNSLKPEDTAVYYCAAPPYSDGQWDDYWGQGTQVTVSS", "polyreactivity (PSR sort gate)": "low polyreactivity"}]}]}
